Reference: PMC6831851 (2019)

B1: neuron-derived neurotrophic factor (NENF) [human (endogenous in NTera2 and in fibroblasts)] / DJ-1 WT fused with FLAG [human] (parent complex)
chain 1: GQTPRPAERGPPVRLFTEEELARYGGEEEDQPIYLAVKGVVFDVTSGKEFYGRGAPYNALTGKDSTRGVAKMSLDPADLTHDTTGLTAKELEALDEVFTKVYKAKYPIVGYTARRILNEDGSPNLDFKPEDQPHFDIKDEF
chain 2: MASKRALVILAKGAEEMETVIPVDVMRRAGIKVTVAGLAGKDPVQCSRDVVICPDASLEDAKKEGPYDVVVLPGGNLGAQNLSESAAVKEILKEQENRKGLIAAICAGPTALLAHEIGFGSKVTTHPLAKDKMMNGGHYTYSENRVEKDGLILTSRGPGTSFEFALAIVEALNGKEVAAQVKAPLVLKD

Variants of: B1
Experiment: co-immunoprecipitation (anti-FLAG IP, immunoblot with anti-NENF), band intensity; DJ-1 KO DNLCs; NENF band relative to FLAG (LC)

Going from chain 2 C53A to chain 2 V51A, the percent of parent rises from 23% to 45%.

Going from chain 2 H126A to chain 2 E163K, the percent of parent falls from 73% to 0%.
